This test addresses T1, His-NEK8 (UniProt Q86SG6 1-692).
T1 construct: NEK8 (NIMA-related kinase 8); also called His-tagged NEK8; source: E. coli BL21, purified (Ni-NTA agarose)
T1 sequence (looked up): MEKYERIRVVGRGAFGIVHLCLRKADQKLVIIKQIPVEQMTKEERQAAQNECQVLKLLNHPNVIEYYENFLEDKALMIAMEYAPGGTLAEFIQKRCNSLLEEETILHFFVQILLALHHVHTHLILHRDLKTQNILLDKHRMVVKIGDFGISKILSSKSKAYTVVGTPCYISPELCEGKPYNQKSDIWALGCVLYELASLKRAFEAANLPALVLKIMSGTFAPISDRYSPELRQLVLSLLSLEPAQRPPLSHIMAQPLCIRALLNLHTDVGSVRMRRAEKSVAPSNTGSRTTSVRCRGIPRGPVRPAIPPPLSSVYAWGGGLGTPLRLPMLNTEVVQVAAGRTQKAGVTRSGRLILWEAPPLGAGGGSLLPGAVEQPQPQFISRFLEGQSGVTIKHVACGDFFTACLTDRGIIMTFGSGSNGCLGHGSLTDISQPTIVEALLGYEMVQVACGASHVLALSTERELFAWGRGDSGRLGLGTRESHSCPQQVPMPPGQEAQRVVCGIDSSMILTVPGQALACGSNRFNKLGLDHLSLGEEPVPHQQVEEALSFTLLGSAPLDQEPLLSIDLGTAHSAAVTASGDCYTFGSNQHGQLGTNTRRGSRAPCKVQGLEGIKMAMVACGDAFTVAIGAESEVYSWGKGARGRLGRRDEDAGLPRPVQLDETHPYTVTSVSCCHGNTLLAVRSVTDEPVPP
The experiment in a line: pull-down; GST affinity isolation: GST-tagged NEK8 or ASNS proteins on glutathione-Sepharose 4B beads incubated with His-tagged ASNS or NEK8 at 4 °C for five hours; wash with GST binding buffer (2 mM EDTA, 50 mM NaF, 100 mM NaCl, 1% NP-40); immunoblotting. Conditions: both partners purified.

B1: GST-ASNS full-length (enzyme, UniProt P08243 1-561, looked up)
chain: MCGIWALFGSDDCLSVQCLSAMKIAHRGPDAFRFENVNGYTNCCFGFHRLAVVDPLFGMQPIRVKKYPYLWLCYNGEIYNHKKMQQHFEFEYQTKVDGEIILHLYDKGGIEQTICMLDGVFAFVLLDTANKKVFLGRDTYGVRPLFKAMTEDGFLAVCSEAKGLVTLKHSATPFLKVEPFLPGHYEVLDLKPNGKVASVEMVKYHHCRDVPLHALYDNVEKLFPGFEIETVKNNLRILFNNAVKKRLMTDRRIGCLLSGGLDSSLVAATLLKQLKEAQVQYPLQTFAIGMEDSPDLLAARKVADHIGSEHYEVLFNSEEGIQALDEVIFSLETYDITTVRASVGMYLISKYIRKNTDSVVIFSGEGSDELTQGYIYFHKAPSPEKAEEESERLLRELYLFDVLRADRTTAAHGLELRVPFLDHRFSSYYLSLPPEMRIPKNGIEKHLLRETFEDSNLIPKEILWRPKEAFSDGITSVKNSWFKILQEYVEHQVDDAMMANAAQKFPFNTPKTKEGYYYRQVFERHYPGRADWLSHYWMPKWINATDPSARTLTHYKSAVKA
notes: asparagine synthetase (ASNS), full-length (FL); also called FL
As for B1, the binding result is “binds”.
